Assay results: the supplement of paper PMC11246515
± gives the standard deviation of the averaged measurements.

Assay: total protein half-life in vivo (active degradation + dilution); higher = more stable protein
[1] = E. coli NCM3722 delta-clpP delta-lon delta-hslV, growth: N-lim chemostat, doubling time 6 h
[2] = E. coli NCM3722 delta-hslV, growth: N-lim chemostat, doubling time 6 h
[3] = E. coli NCM3722 delta-lon, growth: N-lim chemostat, doubling time 6 h
[4] = E. coli NCM3722 delta-smpB, growth: N-lim chemostat, doubling time 6 h
[5] = wild type E. coli NCM3722, growth: C-lim chemostat, doubling time 3 h
[6] = wild type E. coli NCM3722, growth: C-lim chemostat, doubling time 6 h
[7] = wild type E. coli NCM3722, growth: C-lim chemostat, doubling time 12 h
[8] = wild type E. coli NCM3722, growth: N-lim chemostat, doubling time 6 h
[9] = wild type E. coli NCM3722, growth: N-lim chemostat, doubling time 12 h
[10] = wild type E. coli NCM3722, growth: P-lim chemostat, doubling time 6 h
[11] = wild type E. coli NCM3722, growth: P-lim chemostat, doubling time 12 h
[12] = E. coli NCM3722 delta-clpP, growth: N-lim chemostat, doubling time 6 h

Sequence	total protein half-life in vivo [1] [h]	total protein half-life in vivo [2] [h]	total protein half-life in vivo [3] [h]	total protein half-life in vivo [4] [h]	total protein half-life in vivo [5] [h]	total protein half-life in vivo [6] [h]	total protein half-life in vivo [7] [h]	total protein half-life in vivo [8] [h]	total protein half-life in vivo [9] [h]	total protein half-life in vivo [10] [h]	total protein half-life in vivo [11] [h]	total protein half-life in vivo [12] [h]
MFVKLLRSVAIGLIVGAILLVAMPSLRSLNPLSTPQFDSTDETPASYNLAVRRAAPAVVNVYNRGLNTNSHNQLEIRTLGSGVIMDQRGYIITNKHVINDADQIIVALQDGRVFEALLVGSDSLTDLAVLKINATGGLPTIPINARRVPHIGDVVLAIGNPYNLGQTITQGIISATGRIGLNPTGRQNFLQTDASINHGNSGGALVNSLGELMGINTLSFDKSNDGETPEGIGFAIPFQLATKIMDKLIRDGRVIRGYIGIGGREIAPLHAQGGGIDQLQGIVVNEVSPDGPAANAGIQVNDLIISVDNKPAISALETMDQVAEIRPGSVIPVVVMRDDKQLTLQVTIQEYPATN [P0AEE3]	7.33 ± 0.89	5.79 ± 0.39	5.86 ± 0.29	6.21 ± 0.68	3.25 ± 0.23	5.91 ± 0.28	11.3 ± 1.2	5.98 ± 0.72	13.8 ± 2.3	7.16 ± 0.27	12.1 ± 0.81	–
MDKQSLHETAKRLALELPFVELCWPFGPEFDVFKIGGKIFMLSSELRGVPFINLKSDPQKSLLNQQIYPSIKPGYHMNKKHWISVYPGEEISEALLRDLINDSWNLVVDGLAKRDQKRVRPG [P0AAT2]	5.54 ± 0.35	5.97 ± 0.5	6.9 ± 0.29	5.28 ± 0.71	3.35 ± 0.7	5.17 ± 0.11	11.2 ± 0.26	4.78 ± 0.46	10.1 ± 2.1	4.72 ± 1.1	10.6 ± 0.46	6.23
MDQTYSLESFLNHVQKRDPNQTEFAQAVREVMTTLWPFLEQNPKYRQMSLLERLVEPERVIQFRVVWVDDRNQIQVNRAWRVQFSSAIGPYKGGMRFHPSVNLSILKFLGFEQTFKNALTTLPMGGGKGGSDFDPKGKSEGEVMRFCQALMTELYRHLGADTDVPAGDIGVGGREVGFMAGMMKKLSNNTACVFTGKGLSFGGSLIRPEATGYGLVYFTEAMLKRHGMGFEGMRVSVSGSGNVAQYAIEKAMEFGARVITASDSSGTVVDESGFTKEKLARLIEIKASRDGRVADYAKEFGLVYLEGQQPWSLPVDIALPCATQNELDVDAAHQLIANGVKAVAEGANMPTTIEATELFQQAGVLFAPGKAANAGGVATSGLEMAQNAARLGWKAEKVDARLHHIMLDIHHACVEHGGEGEQTNYVQGANIAGFVKVADAMLAQGVI	3.53 ± 0.36	1.8 ± 0.11	2.13 ± 0.14	2.14 ± 0.08	2.94 ± 0.19	4.66 ± 0.28	7.29 ± 0.52	1.88 ± 0.073	2.61 ± 0.4	5.35 ± 0.14	9.48 ± 0.6	1.97 ± 0.1
MVSALYAVLSALLLMKFSFDVVRLRMQYRVAYGDGGFSELQSAIRIHGNAVEYIPIAIVLMLFMEMNGAETWMVHICGIVLLAGRLMHYYGFHHRLFRWRRSGMSATWCALLLMVLANLWYMPWELVFSLR	> 8	> 8	6.32	7.19 ± 0.64	3.51 ± 0.12	7.27	13.7	–	> 16	6.53 ± 0.12	13.1 ± 1.1	–
MLQFILRRLGLVIPTFIGITLLTFAFVHMIPGDPVMIMAGERGISPERHAQLLAELGLDKPMWQQYLHYIWGVMHGDLGISMKSRIPVWEEFVPRFQATLELGVCAMIFATAVGIPVGVLAAVKRGSIFDHTAVGLALTGYSMPIFWWGMMLIMLVSVHWNLTPVSGRVSDMVFLDDSNPLTGFMLIDTAIWGEDGNFIDAVAHMILPAIVLGTIPLAVIVRMTRSSMLEVLGEDYIRTARAKGLTRMRVIIVHALRNAMLPVVTVIGLQVGTLLAGAILTETIFSWPGLGRWLIDALQRRDYPVVQGGVLLVATMIILVNLLVDLLYGVVNPRIRHKK [P0AEF8]	6.91 ± 0.36	5.46 ± 0.53	5.39 ± 0.46	5.95 ± 0.45	3.53 ± 0.4	6.656 ± 0.039	13.1 ± 1.5	6.42 ± 0.19	13 ± 3.1	5.96 ± 0.41	11.5 ± 1	6.54 ± 1.1
MPGLKITLLQQPLVWMDGPANLRHFDRQLEGITGRDVIVLPEMFTSGFAMEAAASSLAQDDVVNWMTAKAQQCNALIAGSVALQTESGSVNRFLLVEPGGTVHFYDKRHLFRMADEHLHYKAGNARVIVEWRGWRILPLVCYDLRFPVWSRNLNDYDLALYVANWPAPRSLHWQALLTARAIENQAYVAGCNRVGSDGNGCHYRGDSRVINPQGEIIATADAHQATRIDAELSMAALREYREKFPAWQDADEFRLW	4.72 ± 0.34	4.46 ± 0.63	4.4 ± 0.72	3.9 ± 0.082	2.74 ± 0.14	5.22 ± 0.33	11.7 ± 4.7	4.42 ± 0.34	6.49	5.74 ± 0.18	10.8 ± 0.35	4.042 ± 0.0079
